Legend:
mATGL [1] = experiment: TG hydrolase activity, E. coli expressed mATGL, CGI-58 activated, hG0S2 truncations (Fig. 1C-E); format: biochemical, mouse; settings: mATGL E. coli extract (50 μg), 2.5 μg purified mCGI-58, 30 μg lysate of E. coli expressing hG0S2 variant, [3H]triolein, triplicates
Protocol: Protein concentrations were determined as described below.
FIGURE 1. Minimal sequence requirements of human G0S2 for ATGL inhibition. A, graphical representation of full-length and shortened versions of hG0S2, those capable of inhibiting ATGL activity are illustrated in black. The largely hydrophobic sequence stretch from Val-28 to Met-42 is depicted in light gray. B–E, activity assays were performed in the presence of CGI-58 as indicated by an asterisk (ATGL*). G0S2 and variants thereof were expressed in E. coli and added as cell lysates. Overexpressed mATGL from E. coli lysates was used for all assays with the exception of the assay shown in B. B, inhibition of TG hydrolase activity of mATGL containing COS-7 cell extracts by WT and C-terminally truncated hG0S2 variants. C, inhibition of TG hydrolase activity of mATGL by WT and C-terminally truncated hG0S2 variants. D, inhibition of TG hydrolase activity of mATGL by WT hG0S2 and variants with N-terminal deletions. E, effect of different N- and C-terminal truncations in hG0S2 on mATGL activity. The fusion tag smt3 is shown as control.

ATGL [2] = settings: cited from earlier work
From the text: Extensive research on the physiological role of ATGL has identified complex regulatory mechanisms for its activity on the transcriptional and post-translational level ([12], [13]). Direct protein-protein interaction of ATGL with the protein comparative gene identification 58 (CGI-58) increases ATGL activity up to 20-fold ([14]). Inhibition of ATGL due to direct interaction with the small, 103-amino acid protein G0/G1 switch gene 2 (G0S2) was discovered in 2010 and confirmed using human and murine proteins ([15][–][21]). The highest G0S2 expression is found in adipose tissues, but it is also pr ... || Activation of ATGL by CGI-58 is considered as fasting response upon β-adrenergic stimulation and phosphorylation of PKA ([12]). Recent studies have strengthened the role of G0S2 as the so-called master regulator of basal and stimulated lipolysis ([27]). mRNA levels of G0S2 respond strongly to hormonal stimuli, yet the dose-dependent inhibition of ATGL by G0S2 itself is reported to be independent of phosphorylation events ([18], [20], [21], [28], [29]). Thus, regulation of the expression levels of G0S2, and consequently the protein concentration, resembles a potent mean to regulate lipid mobili ... || Next, we investigated the specificity of the peptide hGW2052. ATGL and HSL together account for more than 95% of intracellular TG hydrolase activity in white adipose tissue (WAT) ([48]). […]

ATGL [3] = settings: cited from earlier work; remark: listed apart in the source
From the text: Activation of ATGL by CGI-58 is considered as fasting response upon β-adrenergic stimulation and phosphorylation of PKA ([12]). Recent studies have strengthened the role of G0S2 as the so-called master regulator of basal and stimulated lipolysis ([27]). mRNA levels of G0S2 respond strongly to hormonal stimuli, yet the dose-dependent inhibition of ATGL by G0S2 itself is reported to be independent of phosphorylation events ([18], [20], [21], [28], [29]). Thus, regulation of the expression levels of G0S2, and consequently the protein concentration, resembles a potent mean to regulate lipid mobili ... || Structural knowledge on ATGL is very limited. It is predicted to exert lipolytic activity via a catalytic dyad that resides in the patatin domain within the N-terminal half of the lipase ([7], [50]). […] In contrast, Atglis ...

mATGL [4] = target: mATGL (Mus musculus, UniProt Q8BJ56); experiment: TG hydrolase activity of CGI-58-stimulated mATGL (mATGL*) expressed in E. coli; settings: read-out: half-maximal inhibitory concentration (IC50), CGI-58-stimulated ATGL; mATGL from E. coli (25 μg lysate protein) with 2.5 μg mCGI-58; [3H]triolein substrate; triplicates; Fig. 2E (hGW2052), 2F (WT hG0S2)
Chain of mATGL (Mus musculus, UniProt Q8BJ56) (Q8BJ56 whole entry): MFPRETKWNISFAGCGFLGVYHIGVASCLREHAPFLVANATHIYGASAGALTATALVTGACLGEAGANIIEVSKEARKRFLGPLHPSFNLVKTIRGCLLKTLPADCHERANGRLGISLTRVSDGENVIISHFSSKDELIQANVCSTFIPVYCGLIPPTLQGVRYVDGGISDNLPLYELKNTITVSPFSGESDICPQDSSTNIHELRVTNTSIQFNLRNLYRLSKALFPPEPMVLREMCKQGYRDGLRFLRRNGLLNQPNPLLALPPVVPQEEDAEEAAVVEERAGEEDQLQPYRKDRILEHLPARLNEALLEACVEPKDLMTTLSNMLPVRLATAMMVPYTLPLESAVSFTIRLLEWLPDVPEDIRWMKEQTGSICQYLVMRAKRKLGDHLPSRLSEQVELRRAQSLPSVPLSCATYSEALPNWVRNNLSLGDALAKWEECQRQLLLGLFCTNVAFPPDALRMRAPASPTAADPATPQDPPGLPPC
Chain of mATGL (Mus musculus, UniProt Q8BJ56) (Q9DBL9 whole entry partner): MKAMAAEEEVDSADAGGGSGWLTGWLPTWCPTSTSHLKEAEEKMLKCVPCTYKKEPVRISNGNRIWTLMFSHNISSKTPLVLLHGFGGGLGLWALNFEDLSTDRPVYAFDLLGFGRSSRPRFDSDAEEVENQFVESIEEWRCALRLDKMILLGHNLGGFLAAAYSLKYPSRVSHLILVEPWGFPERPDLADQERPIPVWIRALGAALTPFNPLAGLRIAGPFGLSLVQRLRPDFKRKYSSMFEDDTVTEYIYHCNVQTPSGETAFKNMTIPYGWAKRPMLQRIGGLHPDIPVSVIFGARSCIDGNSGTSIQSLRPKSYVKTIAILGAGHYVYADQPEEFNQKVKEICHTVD
Protocol: The peptides were dissolved in 100% DMSO, and concentrations were determined via the absorbance at 280 nm. The final DMSO concentration in the activity assay was ≤1%. The control peptide was prepared the same way.
TG hydrolase activity assay was performed as described ([45]). To screen for the inhibitory capacity of various hG0S2 truncations, 30 μg of protein of cell lysates were incubated with the [^3H]triolein substrate together with 50 μg of cell extract of Strep-mATGL (or COS-7-mATGL) and 2.5 μg of purified mCGI-58. As a control, lysates of the His6-Smt tag were incubated under the same conditions. […] TG substrate was prepared with 1.67 mM triolein, 10 μCi/ml [9,10-^3H]triolein (PerkinElmer Life Sciences), and 190 μM phosphatidylcholine/phosphatidylinositol (3:1) (Sigma) and diluted to the respective concentrations after sonication. Assays with CGI-58 co-activated ATGL were performed on a smaller scale. […] Lysates using LacZ-expressing cells were used as controls. The reaction was terminated by adding 650 μl of methanol/chloroform/heptane (10:9:7) and 200 μl of 100 mM potassium carbonate buffer, pH 10.5 (adjusted with boric acid). The radioactivity in 200 μl of the upper phase (450 μl in total) was determined by liquid scintillation counting.

B1: G0S2 truncated after residue Gly-30: Truncation of G0S2 after residue Gly-30 (N-terminal) (protein, UniProt P27469 30-103, looked up, fragment)
chain: GSVLALFGVVLGLMETVCSPFTAARRLRDQEAAVAELQAALERQALQKQALQEKGKQQDTVLGGRALSNRQHAS
With B1 the “inhibition of TG hydrolase activity (result in words)” value (from here on “inhibition of TG hydrolase activity”) (mATGL [1]) was “complete loss of the capacity to inhibit ATGL”.

B2: hG0S2_27–103: N-terminally truncated hG0S2 until residue Tyr-27 (protein, UniProt P27469 27-103, looked up, fragment)
chain: YVLGSVLALFGVVLGLMETVCSPFTAARRLRDQEAAVAELQAALERQALQKQALQEKGKQQDTVLGGRALSNRQHAS
With B2 the “inhibition of TG hydrolase activity” value (mATGL [1]) was “fully inhibit ATGL activity” and the “inhibition of TG hydrolase activity” value (mATGL [1]; listed as Tyr-27–Ser-103) was “fully able to inhibit ATGL”.

B3: CGI-58: comparative gene identification 58, protein co-activator of ATGL (protein, UniProt Q8WTS1 2-349, looked up)
1-acylglycerol-3-phosphate …: AAEEEEVDSADTGERSGWLTGWLPTWCPTSISHLKEAEEKMLKCVPCTYKKEPVRISNGNKIWTLKFSHNISNKTPLVLLHGFGGGLGLWALNFGDLCTNRPVYAFDLLGFGRSSRPRFDSDAEEVENQFVESIEEWRCALGLDKMILLGHNLGGFLAAAYSLKYPSRVNHLILVEPWGFPERPDLADQDRPIPVWIRALGAALTPFNPLAGLRIAGPFGLSLVQRLRPDFKRKYSSMFEDDTVTEYIYHCNVQTPSGETAFKNMTIPYGWAKRPMLQRIGKMHPDIPVSVIFGARSCIDGNSGTSIQSLRPHSYVKTIAILGAGHYVYADQPEEFNQKVKEICDTVD
For B3, the “increase of ATGL activity” value (ATGL [2]; direct protein-protein interaction with ATGL, ref [14]) is given as “up to 20 fold”.

B4: G0S2 Met-1–Gln-73: truncated variant of G0S2 encompassing the residues Met-1–Gln-73 (protein, UniProt P27469 1-73, looked up, fragment)
chain: METVQELIPLAKEMMAQKRKGKMVKLYVLGSVLALFGVVLGLMETVCSPFTAARRLRDQEAAVAELQAALERQ
For B4, the “inhibition of ATGL (in words)” value (ATGL [2]; truncated/deleted G0S2 variants, ref [20]) is listed as “inhibits the enzyme” and the “interaction with ATGL” value (ATGL [3]; ref [20]) is listed as “interacts with ATGL”.

B5: hG0S2: full-length human G0S2, 103-amino acid protein, expressed in E. coli (protein)
chain: METVQELIPLAKEMMAQKRKGKMVKLYVLGSVLALFGVVLGLMETVCSPFTAARRLRDQEAAVAELQAALERQALQKQALQEKGKQQDTVLGGRALSNRQHAS
modifications: left off: His6, N-terminal, cleaved | Smt, N-terminal, cleaved
notes: full-length human G0S2, 103-amino acid protein, expressed in E. coli
In the case of B5, the IC50 (mATGL [4]) is given as 19 nM and the “site of interaction with ATGL” value (ATGL [3]; ref [15]) is given as “interacts with the N-terminal catalytic domain of ATGL”.
